Fold decline in binding ability to FGFR1 against FGF5 data for 1 substance are collected here from PMC10236585.

The test concerns the target mu-FGF5-Flag (FGF5 p. L191S) (rabbit). The test can be described thus: co-IP; HEK293T cells co-transfected with FGFR1 and FGF5-Flag or mu-FGF5-Flag; lysed 48 h later (50 mM Tris pH 7.4, 150 mM NaCl, 0.2 mM EDTA, 2 mM EGTA, 0.5% Igepal CA-630, 10% glycerol); anti-Flag IP resin overnight at 4 °C; immunoblot with anti-FGFR1 and anti-Flag; densitometry of FGFR1 in the IP normalised to FGF5 or mu-FGF5.

On to “FGFR1 (fibroblast growth factor receptor 1)”, for which the fold decline in binding ability to FGFR1 against FGF5 is 0.49 fold.
